How the values were obtained:
[1] = target: purified bovine cation-independent mannose 6-phosphate receptor (CI-MPR) (bovine) (UniProt P08169); assay: plate assay: conditioned medium on immobilized bovine CI-MPR, bound enzyme by 4-MU activity
[2] = target: purified bovine cation-independent mannose 6-phosphate receptor (CI-MPR) (bovine) (UniProt P08169); assay: plate assay: conditioned medium on immobilized bovine CI-MPR, bound enzyme by 4-MU activity, linear range points

Sequence of UniProt P08169 (P08169 45-2313 limits assumed): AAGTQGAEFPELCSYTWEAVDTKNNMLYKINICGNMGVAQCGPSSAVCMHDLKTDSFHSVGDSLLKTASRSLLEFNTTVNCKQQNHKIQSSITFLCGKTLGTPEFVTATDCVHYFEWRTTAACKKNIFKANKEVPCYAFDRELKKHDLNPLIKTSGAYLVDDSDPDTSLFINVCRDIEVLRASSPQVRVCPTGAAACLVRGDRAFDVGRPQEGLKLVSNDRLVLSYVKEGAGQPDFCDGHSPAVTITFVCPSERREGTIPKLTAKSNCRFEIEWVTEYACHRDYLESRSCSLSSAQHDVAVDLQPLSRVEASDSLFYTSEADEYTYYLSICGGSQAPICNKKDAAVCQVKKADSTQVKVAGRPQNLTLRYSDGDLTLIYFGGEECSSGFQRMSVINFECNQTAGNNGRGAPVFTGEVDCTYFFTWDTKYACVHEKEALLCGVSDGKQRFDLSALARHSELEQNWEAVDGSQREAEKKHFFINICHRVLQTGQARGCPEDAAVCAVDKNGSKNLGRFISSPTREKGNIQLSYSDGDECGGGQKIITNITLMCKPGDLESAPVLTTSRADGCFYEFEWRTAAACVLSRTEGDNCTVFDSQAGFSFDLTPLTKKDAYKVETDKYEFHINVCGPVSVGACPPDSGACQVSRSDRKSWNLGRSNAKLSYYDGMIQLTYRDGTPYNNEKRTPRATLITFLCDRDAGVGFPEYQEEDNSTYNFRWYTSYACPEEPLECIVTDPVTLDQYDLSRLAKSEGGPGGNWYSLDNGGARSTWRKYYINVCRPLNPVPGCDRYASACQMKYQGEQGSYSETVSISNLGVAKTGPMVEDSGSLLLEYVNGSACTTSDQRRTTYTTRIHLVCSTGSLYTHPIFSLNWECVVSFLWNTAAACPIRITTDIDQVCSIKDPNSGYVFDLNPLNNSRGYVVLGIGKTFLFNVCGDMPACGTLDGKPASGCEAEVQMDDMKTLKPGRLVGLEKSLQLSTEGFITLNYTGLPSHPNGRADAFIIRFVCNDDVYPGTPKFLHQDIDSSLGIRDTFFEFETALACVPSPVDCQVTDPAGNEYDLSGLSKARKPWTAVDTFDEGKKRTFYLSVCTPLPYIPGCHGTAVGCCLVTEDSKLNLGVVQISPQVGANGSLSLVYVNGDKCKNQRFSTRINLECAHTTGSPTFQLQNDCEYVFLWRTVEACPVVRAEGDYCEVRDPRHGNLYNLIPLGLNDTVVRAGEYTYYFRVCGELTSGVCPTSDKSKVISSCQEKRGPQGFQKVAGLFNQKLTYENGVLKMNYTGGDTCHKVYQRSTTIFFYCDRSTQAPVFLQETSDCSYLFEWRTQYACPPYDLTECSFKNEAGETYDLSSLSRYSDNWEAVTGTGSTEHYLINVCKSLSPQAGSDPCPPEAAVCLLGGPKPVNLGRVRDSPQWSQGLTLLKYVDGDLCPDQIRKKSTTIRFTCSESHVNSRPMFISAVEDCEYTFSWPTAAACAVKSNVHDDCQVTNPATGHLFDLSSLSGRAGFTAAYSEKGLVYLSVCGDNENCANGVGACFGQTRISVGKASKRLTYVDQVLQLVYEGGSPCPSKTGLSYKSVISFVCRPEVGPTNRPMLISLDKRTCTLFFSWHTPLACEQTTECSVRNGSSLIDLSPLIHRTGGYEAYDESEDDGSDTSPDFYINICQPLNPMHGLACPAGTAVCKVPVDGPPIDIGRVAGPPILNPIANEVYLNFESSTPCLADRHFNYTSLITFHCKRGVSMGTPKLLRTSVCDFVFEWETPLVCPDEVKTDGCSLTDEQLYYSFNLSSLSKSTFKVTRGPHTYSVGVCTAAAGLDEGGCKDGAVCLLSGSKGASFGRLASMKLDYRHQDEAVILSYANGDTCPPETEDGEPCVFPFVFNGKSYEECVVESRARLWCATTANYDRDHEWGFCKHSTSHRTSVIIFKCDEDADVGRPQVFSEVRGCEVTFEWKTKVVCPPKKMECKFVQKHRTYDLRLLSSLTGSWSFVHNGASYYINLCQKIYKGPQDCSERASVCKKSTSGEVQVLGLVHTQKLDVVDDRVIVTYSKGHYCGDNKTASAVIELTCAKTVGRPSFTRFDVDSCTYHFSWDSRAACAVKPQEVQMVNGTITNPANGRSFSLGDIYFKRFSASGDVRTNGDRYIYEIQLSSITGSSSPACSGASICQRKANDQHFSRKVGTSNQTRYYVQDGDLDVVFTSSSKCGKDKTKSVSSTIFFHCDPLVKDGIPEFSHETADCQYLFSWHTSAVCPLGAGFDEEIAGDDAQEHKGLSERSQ

Row | overall binding percentage [1] [%] | percentage of receptor binding [2] [%] | fold of percentage bound against GBA produced by endogenous phosphotransferase [1] [fold] | fold of binding percentage against GLA sample [1] [fold] | Substance
1 | 33.1 | – | – | – | human alpha-galactosidase (GLA) produced from GLA single plasmid in Expi293 cells (from UniProt P06280 32-429) (enzyme)
2 | – | 44 | 10 | – | human acid beta-glucosidase (GBA) produced from bicistronic plasmid pLL11 (pCMV-hGBA-IRES-S1S3) in Expi293 cells (from UniProt P04062 40-536) (enzyme)
3 | – | 43 | – | – | human acid beta-glucosidase (GBA) produced by co-transfection of GBA plasmid and CMV-S1S3 plasmid in Expi293 cells (from UniProt P04062 40-536) (enzyme)
4 | – | 4.5 | – | – | human acid beta-glucosidase (GBA) produced from GBA single expression plasmid in Expi293 cells (endogenous phosphotransferase) (from UniProt P04062 40-536) (enzyme)
5 | 62.1 | – | – | 2 | human alpha-galactosidase (GLA) produced from bicistronic plasmid pLL51 in Expi293 cells (from UniProt P06280 32-429) (enzyme)

Reference: patent publication US20220380800A1
